Reference: US20240254220A1 (CENTRICSBIO, published 2024)

T1: CD300c antigen (11832-H08H, Sino Biological) (human, UniProt Q08708 21-183)
T1 construct: Bought antigen; also called CD300c protein; CD300 antigen-like family member C
T1 sequence (looked up): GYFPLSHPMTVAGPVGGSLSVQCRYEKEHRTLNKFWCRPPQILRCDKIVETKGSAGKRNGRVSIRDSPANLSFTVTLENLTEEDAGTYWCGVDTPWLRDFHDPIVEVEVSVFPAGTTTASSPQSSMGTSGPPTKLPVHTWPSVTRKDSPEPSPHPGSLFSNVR


target: T1, CD300c antigen (11832-H08H, Sino …); assay: selection ELISA of Example 1.2, scFv periplasmic extract on coated CD300c antigen
Description: In order to select anti-CD300c monoclonal antibodies specifically binding, with high binding affinity, to a CD300c antigen, ELISA was performed using the library pool obtained by the same method as in Example 1.1. More specifically, each of a CD300c antigen and a CD300a antigen in a coating buffer (0.1 M sodium carbonate, pH 9.0) was dispensed into an ELISA plate at a concentration of 5 μg/mL per well, followed by incubation at room temperature for 3 hours, to allow the antigen to bind to the plate. The unbound antigens were removed by washing three times using phosphate buffered saline-Tween 20 (PBST), and then 350 μL of PBST supplemented with 2% bovine serum albumin (BSA) was added to each well, followed by incubation at room temperature for 1 hour and then washing again using PBST. Then, 25 μg of a periplasmic extract containing scFv obtained by the same method as in Example 1.1 was added thereto, followed by incubation for 1 hour at room temperature for antigen binding. After 1 hour, the unbound scFv was removed by washing three times using PBST, and then 4 μg/mL of an antibody for detection was added, followed by incubation again at room temperature for 1 hour. Subsequently, the unbound antibodies for detection were removed using PBST, and then HRP-conjugated anti-rabbit IgG was added, followed by incubation at room temperature for 1 hour. The unbound antibodies were removed again using PBST. Subsequently, 3,3′,5,5′-tetramethylbenzidine (TMB) solution was added, followed by incubation for 10 minutes for development. Then, 2 N sulfuric acid solution was added to terminate the development reaction, and the absorbance was measured at 450 nm to identify the antibodies specifically binding to the CD300c antigen.

binding result | Binder
binds | CB301_H3L1_E6 (antibody, V domains shown) VH: not shown VL: QSVLTQPPSASGTPGQRVTISCRGNNIGSKRVHWYQQLPGTAPKLLIYSYNHRPSGVPDRFSGSKSGTSASLAITGLRSEDEADYYCNTWDDSLEGPVFGGGTKLTVL
binds | CB301_H3L1_A10 (antibody, V domains shown) VH: EVQLLESGGGLVQSGGSLRLSCAASGFTFSSYGMHWVRQAPGKGLEWVSAISGSGGSTYYADSVKGRFTISRDNSKNTLYLQMNSLRAEDTAVYYCVRGYGAMDVWGQGTLVTVSS VL: QSVLTQPPSASGTPGQRVTISCTRSSGSIASNYVQWYQQLPGTAPKLLIYRNNQRPSGVPDRFSGSKSGTSASLAISGLRSEDEADYYCSSYTTSSTLVFGGGTKLTVL
binds | CB301_H3L1_A12 (antibody, V domains shown) VH: EVQLLESGGGLVQPGGSLRLSCAASGFTFSSYAMHWVRQAPGKGLEWVSAISGSGGSTYYADSVKGRFTISRDNSKNTLYLQMNSLRAKDTAVYYCASGYGLMDVWGQGTLVTVSS VL: QSVLTQPPSASGTPGQRVTISCTGTSSDVGNYNLVSWYQQLPGTAPKLLIYSNNQRPSGVPDRFSGSKSGTSASLAISGLRSEDEADYYCSSYTGSNALLFGGGTKLTVL

target: T1, CD300c antigen (11832-H08H, Sino …); assay: binding ELISA, plate coated with CD300c antigen (8 µg/mL), HRP anti-Fc IgG detection
Description: In order to identify the antigen-binding ability of the anti-CD300c monoclonal antibodies produced in Example 1, binding ELISA was performed. Specifically, a CD300c antigen (11832-H08H, Sino Biological) or a CD300a antigen (12449-H08H, Sino Biological) in a coating buffer (0.1 M sodium carbonate, pH 9.0) was dispensed into an ELISA plate at a concentration of 8 μg/mL per well, followed by incubation at room temperature for 3 hours to allow the antigen to be bound to the plate. The unbound antigens were removed by washing three times using phosphate buffered saline-Tween 20 (PBST), and then 300 μL of PBST supplemented with 5% bovine serum albumin (BSA) was added to each well, followed by incubation at room temperature for 1 hour and then washing using PBST. Then, an anti-CD300c monoclonal antibody was diluted in quadruplicate and added thereto, followed by incubation for 1 hour at room temperature for antigen binding. After 1 hour, washing was performed three times using PBST to remove unbound anti-CD300c monoclonal antibody, and then 4 μg/mL of an antibody for detection (HRP conjugated anti-Fc IgG) was added, followed by incubation again at room temperature for 1 hour. Subsequently, the unbound antibody for detection was removed using PBST, and then TMB solution was added, followed by incubation for 10 minutes for development. Then, 2 N sulfuric acid solution was added to terminate the development reaction, and the absorbance was measured at 450 nm to identify the antibodies specifically binding to the CD300c antigen.

Binder | EC50 [µg/mL]
SK12 (antibody, V domains shown, also called anti-CD300c monoclonal antibody SK12; CB301 antibody SK12) VH: RVQLLESGGGLVQPGGSLRLSCAASGFTFSSYAMHWVRQAPGKGLEWVSAISGSGGDTYHADSVKGRFTISRDNSKNTLYLQMNSLRAEDTAVYYCTRGLSGFDYWGQGTLVTVSS VL: EIVLTQSPGTLSLSPGERATLSCRASQSISSYLNWYQQKPGQAPRLLIYDASNRAPGIPDRFSGSGSGTDFTLTISRLEPEDFAVYYCQQSYSIPITFGQGTKVEIKF | 0.067
CL4 (antibody, V domains shown, also called anti-CD300c monoclonal antibody CL4; CB301 antibody CL4) VH: RVQLLESGGGLVQPGGSLRLSCAASGFTFGSNYMSWVRQAPGKGLEWVSTISGSGTSTYYADSLKGRFTISRDNSKNTLYLQMNSLRAEDTAVYYCARGMWGMDVWGQGTLVTVSS VL: QSVLTQPPSASGTPGQRVTISCTGKHRHTVNWYQLLPGTAPKLLIYLDSERPSGVPDRFSGSKSGTSASLAISGLRSEDEADYYCQSYDSSSVVFGGGTKLTVL | 0.031
CK3 (antibody, V domains shown, also called anti-CD300c monoclonal antibody CK3; CB301 antibody CK3) VH: RVQLLESGGGLVQPGGSLRLSCAASGFTFSSYAISWVRQAPGKGLEWVSATSGSGRATYYADSVKGRFTISRDNSKNTLYLQMNSLRAEDTAVYYCARDTWWEGYFDLWGQGTLVTVSS VL: EIVLTQSPGTLSLSPGERATLSCQASHISTHLNWYQQKPGQAPRLLIYGASSRATGIPDRFSGSGSGTDFTLTISRLEPEDFAVYYCQQYNTYPPTFGQGTKVEIK | 0.793
CK1 (antibody, V domains shown, also called anti-CD300c monoclonal antibody CK1; CB301 antibody CK1) VH: EVQLLESGGGLVQPGGSLRLSCAASGFTFSRYAMTWVRQAPGKGLEWVSSMSGTGGTTYYADSVKGRFTISRDNSKNTLYLQMNSLRAEDTAVYYCARGAYGFDHWGQGTLVTVSS VL: EIVLTQSPGTLSLSPGERATLSCRASQSIGNYLNWYQQKPGQAPRLLIYDASNLETGIPDRFSGSGSGTDFTLTISRLEPEDFAVYYCQQSSAIPYTFGQGTKVEIK | 0.056
CL9 (antibody, V domains shown, also called anti-CD300c monoclonal antibody CL9; CB301 antibody CL9) VH: EVQLLESGGGLVQPGGSLRLSCAASGFTFSSYYWSWVRQAPGKGLEWVSAISGSGGSTYYADSVKGRFTISRDNSKNTLYLQMNSLRAEDTAVYYCARIDVYGFDIWGQGTLVTVSS VL: QSVLTQPPSASGTPGQRVTISCSGSTSNIGTNYVYWYQQLPGTAPKLLIYDNNNRPSGVPDRFSGSKSGTSASLAISGLRSEDEADYYCQTWDSSTDVVFGGGTKLTVL | 0.094
SK11 (antibody, V domains shown, also called anti-CD300c monoclonal antibody SK11; CB301 antibody SK11) VH: RVQLLESGGGLVQPGGSLRLSCAASGFTFSTYGMHWVRQAPGKGLEWVSAISGSGGSTYYADSVKGRFTISRDNSKNTLYLQMNSLRAEDTAVYYCARGLSGLDYWGQGTLVTVSS VL: EIVLTQSPGTLSLSPGERATLSCRSSQGITNYLAWYQQKPGQAPRLLIYDASNRATGIPDRFSGSGSGTDFTLTISRLEPEDFAVYYCQQSYSTPLTFGQGTKVEIK | 0.052

Results, then the binder that gave them:

EC50 [µg/mL] | Binder
0.065 | SK14 (antibody, V domains shown, also called anti-CD300c monoclonal antibody SK14; CB301 antibody SK14) VH: EVQLLESGGGLVQPGGSLRLSCAASGFTFSNFAIAWVRQAPGKGLEWVSAISGRGTSTYYADSVKGRFTISRDNSKNTLYLQMNSLRAEDTAVYYCARGVSGFDSWGQGTLVTVSS VL: EIVLTQSPGTLSLSPGERATLSCRASQSISSHLAWYQQKPGQAPRLLIYDTSNRATGIPDRFSGSGSGTDFTLTISRLEPEDFAVYYCQQSYSTPFTFGQGTKVEIK
0.148 | CL6 (antibody, V domains shown, also called anti-CD300c monoclonal antibody CL6; CB301 antibody CL6) VH: EVQLLESGGGLVQPGGSLRLSCAASGFTFSSYGMHWVRQAPGKGLEWVSAISGSGGSTYYADSVKGRFTISRDNSKNTLYLQMNSLRAEDTAVYYCAVSGAGRGFFDYWGQGTLVTVSS VL: QSVLTQPPSASGTPGQRVTISCSGSSSNIGSNYVYWYQQLPGTAPKLLIYEDNKRPSGVPDRFSGSKSGTSASLAISGLRSEDEADYYCSSYTSSSTVIFGGGTKLTVL
0.054 | SK17 (antibody, V domains shown, also called anti-CD300c monoclonal antibody SK17; CB301 antibody SK17) VH: EVQLLESGGGLVQPGGSLRLSCAASGFTFSSYYWSWVRQAPGKGLEWVSTITGSGGSTDYANSVKGRFTISRDNSKNTLYLQMNSLRAEDTAVYYCATGGGIFDYWGQGTLVTVSS VL: EIVLTQSPGTLSLSPGERATLSCQASQTISNYLNWYQQKPGQAPRLLIYDASNRATGIPDRFSGSGSGTDFTLTISRLEPEDFAVYYCQQYNSYPPSFGQGTKVEIK
2.42 | SK16 (antibody, V domains shown, also called anti-CD300c monoclonal antibody SK16; CB301 antibody SK16) VH: RVQLLESGGGLVQPGGSLRLSCAASGFTFSSYAMSWVRQAPGKGLEWVSAINGSGGSTLYADSVKGRFTISRDNSKNTLYLQMNSLRAEDTAVYYCARGVSGFDSWGQGTLVTVSS VL: EIVLTQSPGTLSLSPGERATLSCRISQSISSYLNWYQQKPGQAPRLLIYDASLRATGIPDRFSGSGSGTDFTLTISRLEPEDFAVYYCQQSYKTPITFGQGTKVEIK
14.7 | SK15 (antibody, V domains shown, also called anti-CD300c monoclonal antibody SK15; CB301 antibody SK15) VH: RVQLLESGGGLVQPGGSLRLSCAASGFTFSSYAMHWVRQAPGKGLEWVSAINGSGGSTYYADSVKGRFTISRDNSKNTLYLQTNSLRAEDTAVYYCARGLQGFDYWGQGTLVTVSS VL: EIVLTQSPGTLSLSPGERATLSCQASQDITNYLNWYQQKPGQAPRLLIYDASSLETGIPDRFSGSGSGTDFTLTISRLEPEDFAVYYCQQSYSTPITFGQGTKVEIK
0.032 | CL5 (antibody, V domains shown, also called anti-CD300c monoclonal antibody CL5; CB301 antibody CL5) VH: RVQLLESGGGLVQPGGSLRLSCAASGFTFSSYAMHWVRQAPGKGLEWVSSISGGGYGTYYADSVKGRFTISRDNSKNTLYLQMNSLRAEDTAVYYCARSTVWAFDIWGQGTLVTVSS VL: QSVLTQPPSASGTPGQRVTISCSGNNIGSKSVHWYQQLPGTAPKLLIYDVSKRPSERPDRFSGSKSGTSASLAISDLRSEDEADYYCQSFDSSGTWIFGGGTKLTVL
0.033 | CK2 (antibody, V domains shown, also called anti-CD300c monoclonal antibody CK2; CB301 antibody CK2) VH: EVQLLESGGGLVQPGGSLRLSCAASGFTFSSYGMHWVRQAPGKGLEWVSAISGSGTSIYYADSVKGRFTISRDNSKNTLYLQMNSLRAEDTAVYYCARGGTAFDYWGQGTLVTVSS VL: EIVLTQSPGTLSLSPGERATLSCRASQRSDNYLAWYQQKPGQAPRLLIYDASNRATGIPDRFSGSGSGTDFTLTISRLEPEDFAVYYCQQSYSTPFTFGQGTKVETK
0.044 | SK13 (antibody, V domains shown, also called anti-CD300c monoclonal antibody SK13; CB301 antibody SK13) VH: RVQLLESGGGLVQPGGSLRLSCAASGFTFSDYAMSWVRQAPGKGLEWVSSISSSSSYIYYTDSVKGRFTISRDNSKNTLYLQMNSLRAEDTAVYYCARGGYGFDYWGQGTLVTVSS VL: EIVLTQSPGTLSLSPGERATLSCRASQSISSYLNWYQQKPGQAPRLLIYSASSRPQGIPDRFSGSGSGTDFTLTISRLEPEDFAVYYCQQYDDLPFTFGQGTKVEIK
